No end group written: not given here.
Assays:
[1] = biological target: T1, human Fes SH2-kinase unit (residues I448 to the C terminus), autophosphorylated on Y713 (human, UniProt P07332-1 448-822, phosphotyrosine at 713); experiment: crystal structure; sitting drops; Fes SH2-kinase with staurosporine (1 mM) and peptide Ac-IYESL (250-300 uM); form II from 20% PEG 3350, 0.1 M sodium malate; form III from 30% mPEG 2000, 0.15 M NaBr; details: both partners purified
T1 construct: Fes tyrosine kinase, human, NP_001996; Crystallised with staurosporine; also called pY713-Fes; phosphorylated Fes; source: E. coli BL21(DE3)-R3, coexpressed with YopH, purified; autophosphorylated in vitro, purified by gel filtration

[2] = biological target: T2, human Fes SH2-kinase unit (residues I448 to the C terminus), unphosphorylated (human, UniProt P07332-1 448-822); experiment: as above; details: both partners purified
T2 construct: Fes tyrosine kinase, human, NP_001996; linker N terminal to the SH2 domain, SH2 domain and C-terminal kinase domain; residues I448 to the C terminus; Crystallised with staurosporine; also called SH2-kinase polypeptide; unphosphorylated Fes; source: E. coli BL21(DE3)-R3, coexpressed with YopH tyrosine phosphatase, purified
T2 sequence (P07332 448-822): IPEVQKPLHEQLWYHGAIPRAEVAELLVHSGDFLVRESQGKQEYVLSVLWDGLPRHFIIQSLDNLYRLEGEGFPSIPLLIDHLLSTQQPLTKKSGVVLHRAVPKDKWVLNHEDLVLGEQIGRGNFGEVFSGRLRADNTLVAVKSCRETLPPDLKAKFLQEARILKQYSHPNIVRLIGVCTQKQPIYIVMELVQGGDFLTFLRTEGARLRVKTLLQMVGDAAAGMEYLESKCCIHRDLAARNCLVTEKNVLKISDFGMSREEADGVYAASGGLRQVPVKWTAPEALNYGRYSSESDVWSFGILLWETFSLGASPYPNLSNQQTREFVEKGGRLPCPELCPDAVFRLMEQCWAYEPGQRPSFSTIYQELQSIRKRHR

T1 sequence (P07332 448-822): as above

binding result [1]: binds
binding result [2]: binds
B1: Fes kinase consensus substrate peptide Ac-IYESL (peptide)
peptide: Ac-IYESL
notes: consensus substrate peptide of the Fes kinase, derived from peptide library and array screens; also called consensus peptide; source: synthetic peptide
